Assay results published in paper PMC11310380 (Cell reports, 2024).

Target: the molecule itself
Experiment: cross-linking

B1: P9-hTTN3 (human Tentonin 3/TMEM150C with the P9 sequence at its N terminus) (natural protein, UniProt B9EJG8 1-249, looked up)
chain: MDGKKCSVWMFLPLVFTLFTSAGLWIVYFIAVEDDKILPLNSAERKPGVKHAPYISIAGDDPPASCVFSQVMNMAAFLALVVAVLRFIQLKPKVLNPWLNISGLVALCLASFGMTLLGNFQLTNDEEIHNVGTSLTFGFGTLTCWIQAALTLKVNIKNEGRRVGIPRVILSASITLCVVLYFILMAQSIHMYAARVQWGLVMCFLSYFGTFAVEFRHYRYEIVCSEYQENFLSFSESLSEASEYQTDQV
- stoichiometry N: 4
